# Measured values: patent publication US20010034019A1, “Chimeric HCV/GBV-B viruses” (priority 1999, published 2001)
# Assays:
# GBV-B NS5B ΔCT19 [1] = target: T1, GBV-B NS5B ΔCT19 (Hepatitis GB virus B, UniProt Q69422); experiment: Scintillation proximity assay (SPA) of RdRp activity; assay type: biochemical
# T1 construct: initiator methionine (N); made in house; host or cells: E. coli JM109 (DE3)
# T1 sequence (Q69422 2275-2845 limits assumed): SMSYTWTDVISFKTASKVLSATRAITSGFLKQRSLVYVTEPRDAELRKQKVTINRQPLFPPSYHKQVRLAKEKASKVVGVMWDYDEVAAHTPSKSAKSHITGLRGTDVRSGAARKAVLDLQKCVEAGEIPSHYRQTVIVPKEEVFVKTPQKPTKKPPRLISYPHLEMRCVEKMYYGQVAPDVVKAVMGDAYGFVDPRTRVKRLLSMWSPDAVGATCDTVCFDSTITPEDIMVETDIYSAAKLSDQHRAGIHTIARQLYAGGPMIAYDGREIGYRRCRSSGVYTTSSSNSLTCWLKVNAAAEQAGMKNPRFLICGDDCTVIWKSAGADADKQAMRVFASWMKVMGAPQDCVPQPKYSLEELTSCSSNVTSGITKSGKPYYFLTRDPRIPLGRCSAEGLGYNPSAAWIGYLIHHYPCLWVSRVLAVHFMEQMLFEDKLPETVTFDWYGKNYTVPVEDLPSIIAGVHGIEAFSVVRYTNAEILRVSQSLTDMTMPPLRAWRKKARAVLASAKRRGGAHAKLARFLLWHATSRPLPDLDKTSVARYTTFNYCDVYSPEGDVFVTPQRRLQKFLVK
# Protocol: Scintillation proximity assay (SPA). SPA was used to determine the standard activity of RdRp, and performed under standard conditions as described previously by Ferrari et al., supra. Briefly, reaction mixtures (50 μl in total volume) containing, in addition to other buffer components (20 mM HEPES, pH7.3, 7.5 mM DTT, 10 mM MnCl2, 100 mM NaCl, 50 μg/ml BSA and 2 units of RNasin), 250 ng of poly(C), 25 ng of biotinylated oligo(G)12, 5 μM GTP/ 0.1 μCi of ^3H-GTP and 175 ng of GBV-B NS5B protein were incubated in a 96-well plate at room temperature for 3 hours. The reactions were terminated by addition of 50 μl of 100 mM EDTA in phosphate-buffered saline (PBS), the products were captured by SPA beads coated with streptavidin and ^3H-GMP incorporation was determined with a scintillation counter.
# GBV-B NS5B ΔCT19 [2] = target: T1, GBV-B NS5B ΔCT19; experiment: Gel-based RdRp assay; assay type: biochemical; conditions: ZnCl2 0, 1, 2.5, 5, 7.5, 10 μM
# Protocol: Gel-based RdRp assay. Standard activity assays were performed in a reaction mixture (40 μl) containing 20 mM HEPES, pH 7.3, 15 mM MnCl2, 100 μM of ATP, UTP, GTP and 10 μCi of α-^33P-CTP, 300 ng of purified protein and 0.2 μg of a 36-base synthetic RNA (5′-GGA25UAUAUAUAU-3′). The sequence of the RNA was designed to form a stem-loop at the 3′-end to support the “copy-back” priming of RNA synthesis. The polymerization reaction was performed at 30° C. for 1 hr and terminated by phenol and chloroform extraction. RNA was ethanol precipitated and separated on a 15% TBE/6 M urea polyacrylamide gel (Novex). The gel was fixed, vacuum dried and subjected to autoradiography.
# [3] = tested on: GBV-B NS4A 15-mer peptide (amino acids 22-36)
# [4] = tested on: GBV-B NS4A 18-mer peptide (amino acids 29-46)
# [5] = tested on: GBV-B NS4A cofactor peptide (4A17; amino acids 20-36 of GBV-B NS4A)
# [6] = tested on: GBV-B NS4A peptide (4A31; aa 16-46 of GBV-B NS4A)
# [7] = tested on: HCV NS4A cofactor peptide (4A13; aa 22-34 of HCV NS4A)
# GBV-B NS5B ΔCT19 [8] = target: T1, GBV-B NS5B ΔCT19; experiment: RNA-binding (gel-shift) competition assay; conditions: for affinity order of binding to NS5B ΔCT19: competition with nonradiolabeled RNA homopolymers
# Protocol: RNA-binding assay. The RNA binding assay was performed in a 10 μl reaction mixture containing 20 mM HEPES, pH 7.3, 7.5 mM MnCl2, 7.5 mM DTT, 5% glycerol, 125 mM NaCl, 100 μg per ml of BSA, 1 unit of RNase inhibitor, 100 ng of GBV-B NS5B protein, 1 pmol of an end-labeled RNA probe with the sequence of 5′-U28GGACUU CGGUCC-3′, and increasing amounts of homopolymeric RNA as depicted indicated in FIG. 12. The probe bound most tightly to the GBV-B NS5B among all the RNA probes of similar length tested (data not shown). Following incubation at room temperature for 30 min, the reaction mixture was separated on a nondenaturing 6% polyacrylamide gel at 180 volts for 1.25 hrs in 0.5×TBE buffer. The gel was dried and subjected to autoradiography.
molecule,measurement,setting,value
OCC(O)CO [Glycerol],concentration at which RdRp activity is inhibited,"GBV-B NS5B ΔCT19 [1]; poly C template, oligoG12 primer",higher than 3%
"[Cl-].[Cl-].[Mg+2] [Mg^2+, MgCl2]",ability of divalent cation to support RdRp activity,GBV-B NS5B ΔCT19 [1]; concentrations as high as 20 mM,could not replace Mn^2+ to support the activity
"[Cl][Mn][Cl] [Mn^2+, MnCl2]",optimal concentration of divalent cation for polymerase activity,GBV-B NS5B ΔCT19 [1]; titration 0-20 mM,15 mM
"[Cl-].[Cl-].[Zn+2] [Zn^2+, ZnCl2]",inhibition of GBV-B RdRp activity,GBV-B NS5B ΔCT19 [2],inhibits GBV-B RdRp activity at low-micromolar (μM) concentrations
full-length GBV-B NS3 protease (GBV-B NS3-His),cofactor activity: enhancement of cleavage of GBV-B NS4A/4B substrate by 1.5 uM GBV-B NS3 (phosphorimaging),[3],"a 15-mer peptide (amino acids 22-36), which is the minimum region that efficiently activates protease activity for trans-cleavage"
same,cofactor activity: enhancement of cleavage of GBV-B NS4A/4B substrate by 1.5 uM GBV-B NS3 (phosphorimaging),[4],did not possess the cofactor activity as it failed to enhance the protease activity
same,cofactor activity: enhancement of cleavage of GBV-B NS4A/4B substrate by 1.5 uM GBV-B NS3 (phosphorimaging),[5],a 17-mer peptide derived from amino acid 20 to 36 of NS4A retained the cofactor activity
same,trans-cleavage of HCV (250 nM protease) and GBV-B (2 uM protease) NS4A/4B substrates by GBV-B NS3 with 100 uM peptide (SDS-PAGE),[5],protease activation is dependent upon an NS4A cofactor from the same virus (GBV-B NS3 activated by the GBV-B NS4A peptide)
same,trans-cleavage of GBV-B NS4A/4B substrate by 2 uM GBV-B NS3 with or without 20 uM peptide (SDS-PAGE),[6],cleavage at the NS4A/NS4B junction by wild type GBV-B NS3 occurs only in the presence of the GBV-B NS4A cofactor
same,trans-cleavage of GBV-B NS5A/5B substrate by 2 uM GBV-B NS3 with or without 20 uM peptide (SDS-PAGE),[6],processing at the NS5A/NS5B junction is also NS4A cofactor-dependent
same,"trans-cleavage of in vitro translated HCV NS4A/4B, NS4B/5A and NS5A/5B substrates by GBV-B NS3 with or without 20 uM peptide (SDS-PAGE)",[6],substrate processing was greatly improved by the NS4A peptide
same,trans-cleavage of HCV (250 nM protease) and GBV-B (2 uM protease) NS4A/4B substrates by GBV-B NS3 with 100 uM peptide (SDS-PAGE),[7],protease activation is dependent upon an NS4A cofactor from the same virus (GBV-B NS3 not activated by the HCV NS4A peptide)
full-length HCV NS3 protease (HCV His-NS3),trans-cleavage of HCV and GBV-B NS4A/4B substrates by 50 nM HCV NS3 with 100 uM peptide (SDS-PAGE),[5],protease activation is dependent upon an NS4A cofactor from the same virus (HCV NS3 not activated by the GBV-B NS4A peptide)
same,trans-cleavage of GBV-B NS4A/4B substrate by HCV NS3 with or without 100 uM peptide (SDS-PAGE),[7],dose-dependent and NS4A cofactor-enhanced cleavage activity at the NS4A/4B junction site
same,trans-cleavage of GBV-B NS4A/4B substrate by full-length HCV NS3 with HCV NS4A peptide (SDS-PAGE),[7],also generated the cleavage products in an HCV NS4A cofactor-dependent manner
same,trans-cleavage of GBV-B NS5A/5B substrate by HCV NS3 with or without 100 uM peptide (SDS-PAGE),[7],Cleavage of the GBV-B NS5A/5B site was inefficient and required 10 µM of HCV NS3 protease and was cofactor dependent
same,trans-cleavage of HCV and GBV-B NS4A/4B substrates by 50 nM HCV NS3 with 100 uM peptide (SDS-PAGE),[7],protease activation is dependent upon an NS4A cofactor from the same virus (HCV NS3 activated by the HCV NS4A peptide)
poly (A),affinity order of binding to NS5B ΔCT19,GBV-B NS5B ΔCT19 [8],poly (U)>poly (G)>poly (A)>poly (C)
poly (C),affinity order of binding to NS5B ΔCT19,GBV-B NS5B ΔCT19 [8],poly (U)>poly (G)>poly (A)>poly (C)
poly (U),competition for binding of NS5B ΔCT19 to labeled RNA probe,"GBV-B NS5B ΔCT19 [8]; 0.1, 1, 10, 100 x probe",competes most efficiently for binding
same,affinity order of binding to NS5B ΔCT19,GBV-B NS5B ΔCT19 [8],poly (U)>poly (G)>poly (A)>poly (C)
